The assay concerns PPO-deficient BT3 E. coli (ΔPPO). The experiment in a line: PPO-inhibiting herbicide tolerance test of PPO variants in E. coli (growth on herbicide-containing LB agar). The settings on record: CyPPO19 variants in BT3 (ΔPPO) E. coli; LB agar with 0 to 2,000 μM herbicide, 37° C., dark, 16-20 hours. The assay is classed as cell-based. In a few lines: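 Tolerance was scored against wild-type enzyme: '−' for equal growth, one '+' per 10-fold gain, up to '+++++'. ΔPPO BT3 cells carrying variant plasmids, spotted as a 10-fold dilution series from OD600=0.5, grew 16-20 h at 37° C. in the dark on ampicillin LB agar containing 0 to 2,000 μM herbicide.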

Changes are numbered by the printed parent chain. Names may count otherwise.

B1: CyPPO19 R89A + A167L + V305L + F360T: variant of CyPPO19 PPO protein (SEQ ID NO: 1) (protein)
chain: MSEVDVAIVGGGLSGLSLAWRLQQSAPQYSVVLLEASDRLGGNITTQTAEGFVWELGPNSFAPTPALLQLIAEVGLQSELIRGDRHLPAYIYWRGQLYPLQPTRPLALATSNLLSPWGKVRAALGALGFVPPYLGSGDESVNSFFRRHLGQEVAERLVAPFVSGVYLGDPQQLSAAAAFRRIAQLEKLGGGLIAGALHLRRQQAPKPKPPTSVQMRPGELGSFKEGLAALPRAIAQQLKAPIHLQTPVQEITPDPKGGYLLRSGEQTWRARSVVLATPAYQTAELVAPFQPAIARVLATIPYPTLACVVLAYPAGLGRSVRPGFGVLIPRSQGIRTLGTIWSSCLFPQRTPAGWQVFTSTIGGATDPDLASLSEEAIVQQVQQDLNRLLDLPAAKARLLGMKVWRRAIPQYMVGYPEQWQQVTHALSQTPGLFLCSNYAEGVALGDRVEHGNRTAAAVAAYLSGGQP
modifications: Synthetic_PPO of Thermosynechococcus elongatus PKUAC-SCTE542 (comprising GenBank No. CP032152.1)
As for B1, the “tolerance level relative to wild type, Carfentrazone” value is recorded as “+ (‘+’ per each 10-fold resistance)”; the “tolerance level relative to wild type, Flumioxazin” value is reported as “++ (‘+’ per each 10-fold resistance)”; the “tolerance level relative to wild type, Fomesafen” value is listed as “++ (‘+’ per each 10-fold resistance)”; the “tolerance level relative to wild type, Oxyfluorfen” value is reported as “++ (‘+’ per each 10-fold resistance)”. Also, the “tolerance level relative to wild type, Saflufenacil” value is reported as “+++ (‘+’ per each 10-fold resistance)”; the “tolerance level relative to wild type, Sulfentrazone” value is listed as “++ (‘+’ per each 10-fold resistance)”; the “tolerance level relative to wild type, Tiafenacil” value is “+++ (‘+’ per each 10-fold resistance)”.

B2: CyPPO19 R89A + A167C + I408R + F360M: variant of CyPPO19 PPO protein (SEQ ID NO: 1) (protein)
chain: B1 chain with L167C, L305V, T360M, I408R
modifications: Synthetic_PPO of Thermosynechococcus elongatus PKUAC-SCTE542 (comprising GenBank No. CP032152.1)
On to B2, for which the “tolerance level relative to wild type, Carfentrazone” value is “+ (‘+’ per each 10-fold resistance)”; the “tolerance level relative to wild type, Flumioxazin” value is listed as “++++ (‘+’ per each 10-fold resistance)”; the “tolerance level relative to wild type, Fomesafen” value is listed as “++ (‘+’ per each 10-fold resistance)”; the “tolerance level relative to wild type, Oxyfluorfen” value is given as “++ (‘+’ per each 10-fold resistance)”. Besides, the “tolerance level relative to wild type, Saflufenacil” value is recorded as “+++ (‘+’ per each 10-fold resistance)”; the “tolerance level relative to wild type, Sulfentrazone” value was “++ (‘+’ per each 10-fold resistance)”; the “tolerance level relative to wild type, Tiafenacil” value is “+++ (‘+’ per each 10-fold resistance)”.

B3: CyPPO19 V165S + A167C + L327T + F360M: variant of CyPPO19 PPO protein (SEQ ID NO: 1) (protein)
chain: B1 chain with A89R, V165S, L167C, L305V, L327T, T360M
modifications: Synthetic_PPO of Thermosynechococcus elongatus PKUAC-SCTE542 (comprising GenBank No. CP032152.1)
Consider B3, for which the “tolerance level relative to wild type, Carfentrazone” value was “+ (‘+’ per each 10-fold resistance)”; the “tolerance level relative to wild type, Flumioxazin” value is listed as “++++ (‘+’ per each 10-fold resistance)”; the “tolerance level relative to wild type, Fomesafen” value was “++ (‘+’ per each 10-fold resistance)”; the “tolerance level relative to wild type, Oxyfluorfen” value is on record as “++ (‘+’ per each 10-fold resistance)”. The “tolerance level relative to wild type, Saflufenacil” value was “++++ (‘+’ per each 10-fold resistance)”; the “tolerance level relative to wild type, Sulfentrazone” value is on record as “++++ (‘+’ per each 10-fold resistance)”; the “tolerance level relative to wild type, Tiafenacil” value was “++++ (‘+’ per each 10-fold resistance)”.

B4: CyPPO19 V165S + F360V: variant of CyPPO19 PPO protein (SEQ ID NO: 1) (protein)
chain: B1 chain with A89R, V165S, L167A, L305V, T360V
modifications: Synthetic_PPO of Thermosynechococcus elongatus PKUAC-SCTE542 (comprising GenBank No. CP032152.1)
As to B4, the “tolerance level relative to wild type, Carfentrazone” value is on record as “+ (‘+’ per each 10-fold resistance)”; the “tolerance level relative to wild type, Flumioxazin” value was “++++ (‘+’ per each 10-fold resistance)”; the “tolerance level relative to wild type, Fomesafen” value is reported as “+ (‘+’ per each 10-fold resistance)”; the “tolerance level relative to wild type, Oxyfluorfen” value is on record as “++ (‘+’ per each 10-fold resistance)”. Further, the “tolerance level relative to wild type, Saflufenacil” value is “++++ (‘+’ per each 10-fold resistance)”; the “tolerance level relative to wild type, Sulfentrazone” value is reported as “++++ (‘+’ per each 10-fold resistance)”; the “tolerance level relative to wild type, Tiafenacil” value is reported as “++++ (‘+’ per each 10-fold resistance)”.

B5: CyPPO19 R89A + A167L + L327T + F360I: variant of CyPPO19 PPO protein (SEQ ID NO: 1) (protein)
chain: B1 chain with L305V, L327T, T360I
modifications: Synthetic_PPO of Thermosynechococcus elongatus PKUAC-SCTE542 (comprising GenBank No. CP032152.1)
In the case of B5, the “tolerance level relative to wild type, Carfentrazone” value is reported as “++ (‘+’ per each 10-fold resistance)”; the “tolerance level relative to wild type, Flumioxazin” value was “++++ (‘+’ per each 10-fold resistance)”; the “tolerance level relative to wild type, Fomesafen” value is listed as “+++ (‘+’ per each 10-fold resistance)”; the “tolerance level relative to wild type, Oxyfluorfen” value was “+++++ (until ‘+++++’ as maximal resistance)”. Moreover, the “tolerance level relative to wild type, Saflufenacil” value is “++++ (‘+’ per each 10-fold resistance)”; the “tolerance level relative to wild type, Sulfentrazone” value was “++++ (‘+’ per each 10-fold resistance)”; the “tolerance level relative to wild type, Tiafenacil” value is “++++ (‘+’ per each 10-fold resistance)”.

B6: CyPPO19 V165C + A167I + V305M + F360V: variant of CyPPO19 PPO protein (SEQ ID NO: 1) (protein)
chain: B1 chain with A89R, V165C, L167I, L305M, T360V
modifications: Synthetic_PPO of Thermosynechococcus elongatus PKUAC-SCTE542 (comprising GenBank No. CP032152.1)
As to B6, the “tolerance level relative to wild type, Carfentrazone” value was “+ (‘+’ per each 10-fold resistance)”; the “tolerance level relative to wild type, Flumioxazin” value is recorded as “++ (‘+’ per each 10-fold resistance)”; the “tolerance level relative to wild type, Fomesafen” value is “+ (‘+’ per each 10-fold resistance)”; the “tolerance level relative to wild type, Oxyfluorfen” value is listed as “+ (‘+’ per each 10-fold resistance)”. The “tolerance level relative to wild type, Saflufenacil” value was “++ (‘+’ per each 10-fold resistance)”; the “tolerance level relative to wild type, Sulfentrazone” value is “+ (‘+’ per each 10-fold resistance)”; the “tolerance level relative to wild type, Tiafenacil” value is recorded as “++ (‘+’ per each 10-fold resistance)”.
